From article PMC7572793 (Immunity, 2020)

How the values were obtained:
Assay in all cases: ELISA
(NANP)7 = target: T1, (NANP)7 (Plasmodium falciparum)
T1 chain: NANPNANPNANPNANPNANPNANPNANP

peptide 29 = target: T2, peptide 29 (Plasmodium falciparum 3D7)
T2 chain: NANPNANPNANPNAN

(NANP)3 = target: T3, (NANP)3 (Plasmodium falciparum)
T3 chain: NANPNANPNANP

(NANP)5 = target: T4, (NANP)5 (Plasmodium falciparum)
T4 chain: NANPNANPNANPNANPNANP

(NANP)8 = target: T5, (NANP)8 (Plasmodium falciparum)
T5 chain: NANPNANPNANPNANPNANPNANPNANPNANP

(NANP)9 = target: T6, (NANP)9 (Plasmodium falciparum)
T6 chain: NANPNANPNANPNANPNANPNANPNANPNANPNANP

(NANP)6 = target: T7, (NANP)6 (Plasmodium falciparum)
T7 chain: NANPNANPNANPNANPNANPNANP

Measured: binding result

B1: 317 (antibody, V domains shown)
VH: QMQLVESGGGVVQPGRSLRLSCTASGFTFSTYAMHWVRQSPGQGLQWVAVISYHSTNKYYEDSVRGRFTISRDNSKNTLYLQMNSLRAEDTAVYYCARDGYSSSFFDFWGQGTLVTVSS
VL: DIQMTQSPSTLSASVGDRVAITCRASQSISRWLAWYQQQPGKAPKLLMSGASVLESGVPSRFSGSGSGTEFTLTISSLQPDDFATYYCQHYNSYFVTFGQGTKVEIK
not listed: (NANP)6
binds: all other assays above

B2: CIS43 (antibody, V domains shown)
VH: QVQLVQSGAEVKKPGASVKVSCKASGYTFTSYAIHWVRQAPGQRLEWMGWIKAGNGNTRYSQKFQDRVTITRDTSTTTAYMELSSLRSEDTAVYYCALLTVLTPDDAFDIWGQGTMVTVSS
VL: not shown
binds: (NANP)9

B3: 311 (antibody, V domains shown)
VH: QVQLVESGGGVVPPGRSLRLSCATSGFTFSNYGMHWVRQAPGKGLEWVAIIWYDGSRNFYAASVEGRFTISRDNSKNTLYLQMNSLRVEDTAVYYCARAAYYDTSGYGDYWGQGTLVTVSS
VL: QSVLTQPPSVSGAPGQTVTISCTGGSSNIGAGYDVHWYQQLPGTAPKLLIYGNINRPSGVPDRFSGSKSGTSASLAITGLQAEDEADYYCQSYDRRLSGSWVFGGGTKLTVL
binds: all assays above

B4: MGU12 (antibody, V domains shown)
VH: QVQLVESGGGVVQPGRSLRLSCAASGFSFSSYGMHWVRQAPGKGPEWVAVIWHDGSYSYYADSVRGRFTISRDNSKNTLYLQMNSLRPEDTGMYHCVKVEDYVRGSSHGGAFHIWGQGTMVTVSS
VL: DIQMTQSPSTLSASVGDRVTITCRASQTINNWLAWYQWKPGKAPELLIYKASSLESGVPSRFSGSGSGTEFTLTISSLQPDDFATYYCQQYSSYWTFGQGTKVDIK
binds: all assays above

B5: 1210 (antibody, V domains shown)
VH: QVQLVESGGGVVQPGRSLRLSCAASGFTFSNYGMHWVRQAPGKGLEWVAVIWYDGSKKYYADSVKGRFTISRDNSKNTLYLQMNSLRAEDTAVYYCARVRDSSDYYGDAFDIWGQGTMVTVSS
VL: DIQMTQSPSTLSASVGDRVTITCRASQSISSWLAWYQQKPGKAPKLLIYKASNLESGVPLRFSGSGSGTEFTLTISSLQPDDFATYYCQQYNNYWTFGQGTKVEIK
not listed: (NANP)3 | (NANP)5
binds: all other assays above
